{"source": "paper PMC4103454", "about": "“FAN1 Activity on Asymmetric Repair Intermediates Is Mediated by an Atypical Monomeric Virus-type Replication-Repair Nuclease Domain” (Cell Reports, 2014)", "molecules": {"B1": {"name": "tryptic fragment 360-507 of hFAN1_360 (domain or fragment, human, UniProt Q9Y2M0 360-507, looked up)", "chain": "GSSCNGPGQTTGHPYYLRSFLVVLKTVLENEDDMLLFDEQEKGIVTKFYQLSATGQKLYVRLFQRKLSWIKMTKLEYEEIALDLTPVIEELTNAGFLQTESELQELSEVLELLSAPELKSLAKTFHLVNPNGQKQQLVDAFLKLAKQR", "notes": "human FAN1, protected tryptic fragment identified by mass spectrometry as amino acids 360-507; The three fragments are said to correspond broadly to the SAP, TPR and VRR-Nuc homology regions; also called amino acids 360–507; source: limited tryptic proteolysis of purified hFAN1_360 (from E. coli)"}, "B2": {"name": "tryptic fragment 795-1,012 of hFAN1_360 (domain or fragment, human, UniProt Q9Y2M0 795-1012, looked up)", "chain": "SVFVMEAGEAADPTTVLCSVEELALAHYRRSGFDQGIHGEGSTFSTLYGLLLWDIIFMDGIPDVFRNACQAFPLDLCTDSFFTSRRPALEARLQLIHDAPEESLRAWVAATWHEQEGRVASLVSWDRFTSLQQAQDLVSCLGGPVLSGVCRHLAADFRHCRGGLPDLVVWNSQSRHFKLVEVKGPNDRLSHKQMIWLAELQKLGAEVEVCHVVAVGAK", "notes": "human FAN1, protected tryptic fragment identified by mass spectrometry as amino acids 795-1,012; The three fragments are said to correspond broadly to the SAP, TPR and VRR-Nuc homology regions; also called amino acids 795–1,012; source: limited tryptic proteolysis of purified hFAN1_360 (from E. coli)"}, "B3": {"name": "psNUC, VRR-Nuc single-domain protein of Psychrobacter (enzyme)", "chain": "RLKGLTEDEVQTVVMNWSKRQKFKGRPLFDYIHHSPNGGKRAAKIGSSGKRYSPEAAKFKRMGVKAGYPDLIIDIARGAYHGLRIEIKKDGNSYATPAQKERIEMLAKEGYCAVVAKGIDNVISVIQQYIKLGDFDGVSQLTADK", "notes": "psNUC, standalone VRR-Nuc domain protein of Psychrobacter, UniProt A5WF35; Synthetic gene (GeneART) in pGEX 6P-1; The structure was solved by SAD on a selenomethionine derivative; source: E. coli, purified (glutathione-Sepharose, 3C protease cleavage, Superdex gel filtration)"}}, "key": {"[1]": {"molecular_target": "stNUC, VRR-Nuc single-domain protein of Streptococcus equi bacteriophage P9 (Streptococcus equi bacteriophage P9)", "assay": "AUC; sedimentation velocity, 50,000 rpm, 277 K, 50 mM Tris/HCl pH 8.0, 300 mM NaCl, 0.50 mM TCEP, interference optics, SEDFIT c(s) and c(M)"}, "[2]": {"molecular_target": "saNUC, VRR-Nuc single-domain protein of Salmonella enteritidis typing phage 3 (Salmonella enteritidis typing phage 3)", "assay": "AUC; sedimentation velocity, 50,000 rpm, 277 K, 50 mM Tris/HCl pH 8.0, 300 mM NaCl, 0.50 mM TCEP, interference optics, SEDFIT c(s) and c(M)"}, "psNUC": {"system": "psNUC", "assay": "EMSA", "conditions": "stoichiometric binding at 1 nM DNA; 'indicative of a subnanomolar' KD; EMSA: 1 nM radiolabelled DNA, 20 C, 30 min, binding buffer in Supplemental Information (composition and pH not in material); 2.5% Ficoll-400, 8% native PAGE in …"}, "stNUC": {"system": "stNUC", "assay": "EMSA", "conditions": "EMSA: 1 nM radiolabelled DNA, 20 C, 30 min, binding buffer in Supplemental Information (composition and pH not in material); 2.5% Ficoll-400, 8% native PAGE in …"}, "[3]": {"molecular_target": "B2", "assay": "SEC; S200 gel filtration of a preparative scale tryptic digest of hFAN1_360; SDS-PAGE of fractions across the peak", "conditions": "both partners purified"}, "[4]": {"molecular_target": "T1, tryptic fragment 515-790 of hFAN1_360 (human, UniProt Q9Y2M0 515-790)", "T1 construct": "human FAN1, protected tryptic fragment identified by mass spectrometry as amino acids 515-790; The three fragments are said to correspond broadly to the SAP, TPR and VRR-Nuc homology regions; also called amino acids 515–790; source: limited tryptic proteolysis of purified hFAN1_360 (from E. coli)", "T1 sequence (looked up)": "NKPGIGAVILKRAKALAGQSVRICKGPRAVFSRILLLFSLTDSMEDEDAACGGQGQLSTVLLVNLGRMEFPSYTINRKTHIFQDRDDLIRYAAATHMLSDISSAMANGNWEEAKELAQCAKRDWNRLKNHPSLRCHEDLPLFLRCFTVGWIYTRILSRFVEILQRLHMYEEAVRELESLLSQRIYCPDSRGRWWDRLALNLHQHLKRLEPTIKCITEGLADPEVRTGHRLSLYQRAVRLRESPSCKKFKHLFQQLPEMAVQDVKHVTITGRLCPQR", "assay": "SEC; S200 gel filtration of a preparative scale tryptic digest of hFAN1_360; SDS-PAGE of fractions across the peak", "conditions": "both partners purified"}, "[5]": {"molecular_target": "the molecule itself", "assay": "AUC; sedimentation velocity, 50,000 rpm, 277 K, 50 mM Tris/HCl pH 8.0, 300 mM NaCl, 0.50 mM TCEP, interference optics, SEDFIT c(s) and c(M)"}, "[6]": {"molecular_target": "the molecule itself", "assay": "AUC; sedimentation velocity as above, psNUC at concentrations above 70 uM; dimer to tetramer"}}, "data": [{"molecule": "stNUC, VRR-Nuc single-domain protein of Streptococcus equi bacteriophage P9 (enzyme)", "values": [{"measurement": "stoichiometry N", "setting": "[1]", "value": 2}]}, {"molecule": "saNUC, VRR-Nuc single-domain protein of Salmonella enteritidis typing phage 3 (enzyme)", "values": [{"measurement": "stoichiometry N", "setting": "[2]", "value": 2}]}, {"molecule": "four-way DNA junction (HJ)", "values": [{"measurement": "Kd", "setting": "psNUC", "value": "< 1", "unit": "nM"}, {"measurement": "Kd", "setting": "stNUC", "value": 200, "unit": "nM"}]}, {"molecule": "B1", "values": [{"measurement": "binding result", "setting": "[3]", "value": "binds"}, {"measurement": "binding result", "setting": "[4]", "value": "binds"}]}, {"molecule": "B2", "values": [{"measurement": "binding result", "setting": "[4]", "value": "binds"}]}, {"molecule": "B3", "values": [{"measurement": "stoichiometry N", "setting": "[5]", "value": 2}, {"measurement": "stoichiometry N", "setting": "[6]", "value": 4}]}]}
